Laboratory results as given in paper PMC8017925, “Structural basis for differential recognition of phosphohistidine-containing peptides by 1-pHis and 3-pHis monoclonal antibodies” (Proceedings of the National Academy of Sciences of the …, 2021).

Tested on: SCS pHis peptide
Experiment: BLI of pHis Fabs with phosphorylated SCS peptide
Type: binding
Settings: GpHAGAI motif
Description: Next, we turned to further analyze the peptide selectivity using BLI experiments. Nine amino acid peptide sequences from proteins known to undergo histidine phosphorylation were selected and synthesized (SI Appendix, Table S2). The biotinylated peptides ACLY, NM23, SCS, and Common-His were chemically phosphorylated using phosphoramidate (8 h at 23 °C), and affinity-purified using immobilized 1-pHis IgGs or 3-pHis IgGs, as described above. BLI signal intensity was used to assess peptide binding to the Fabs. […]
The binding kinetics of pHis Fabs with the peptides (pTza and pHis) were evaluated with an Octet RED96e (FortéBio). […] The biotinylated pTza peptides or pHis peptides (20 nM) with and without phosphoramidate treatment were coated onto these streptavidin biosensors and analyzed for their binding to varying concentrations of the pHis Fabs with an association time of 120 s and dissociation time of 200 s. […] The data were analyzed using the Octet software (FortéBio) and the rates of association and dissociation were obtained by global fitting data to the 1:1 Langmuir interaction model. […]
1H NMR of ACLYana peptide. A mixture of 5 mM ACLYana peptide and 250 mM phosphoramidate in 20 mM d18-Hepes, pH 8.0, 50 mM NaCl in D2O was incubated at 23 °C and monitored over the course of 29 h. […]

B1: SC44-8: Fab of rabbit 3-pHis-specific monoclonal antibody with proclivity for GpHAGA motif (antibody, V domains shown)
VH: QSVKESGRGLVQPGGSLTLTCTASGFSIDSYGFSWVRQAPGKGLEHIGYLTAGGRAFYASWAKSRSTITRNTNENTVTLKMTSLTAADTATYFCAKLGSGNPVAIWGPGTLVTVSS
VL: QVLTQTPSFTSAAVGGTVTINCQSSQSVWRNKNLAWYQQKPGQPPKRLIYAIATLDSGVPSRFSGSGSGTQFTLTISDVQCDDAATYYCVGHYGSENDAYYAFGGGTEVVVK
BLI signal with SCS peptide: 0.5 nm
